The text below walks through data of US20220057403A1.

The target in the experiment is HA-tagged re-expressed version of the Qa-1b molecule (mouse). The experiment in a line: immunoprecipitation of Qa-1b from tumor cells, mass spectrometry of the associated peptides.

Bounds are passed on as bounds.

HA-tagged re-expressed version of the Qa-1b molecule (mouse), sequence (P06339 21-357, chain 1 of 2): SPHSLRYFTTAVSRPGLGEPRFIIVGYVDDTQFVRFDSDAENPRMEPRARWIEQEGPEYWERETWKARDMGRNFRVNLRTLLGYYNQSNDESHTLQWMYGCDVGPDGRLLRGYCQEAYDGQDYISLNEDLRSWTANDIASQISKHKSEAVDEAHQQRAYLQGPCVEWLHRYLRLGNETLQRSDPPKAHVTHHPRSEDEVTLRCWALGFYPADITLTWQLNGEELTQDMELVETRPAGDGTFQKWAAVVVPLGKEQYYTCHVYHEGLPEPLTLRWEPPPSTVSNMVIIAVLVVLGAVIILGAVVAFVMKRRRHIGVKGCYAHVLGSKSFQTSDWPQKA
HA-tagged re-expressed version of the Qa-1b molecule (mouse), sequence (P01887 21-119, chain 2 of 2, further chain): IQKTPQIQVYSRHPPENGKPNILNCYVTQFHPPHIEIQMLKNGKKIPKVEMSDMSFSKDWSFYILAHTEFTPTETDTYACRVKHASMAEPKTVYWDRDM

Molecule AMAPRTLLL [Mouse Qdm Peptide] yielded a percent of Qa-1b associated with the peptide (control sample) of over 99%.
